In the series the target is T1, BRB1 tyrosine kinase substrate peptide.
T1 chain: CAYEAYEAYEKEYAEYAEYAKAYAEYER

B1: FES (protein)
chain: MGFSSELCSPQGHGVLQQMQEAELRLLEGMRKWMAQRVKSDREYAGLLHHMSLQDSGGQSRAISPDSPISQSWAEITSQTEGLSRLLRQHAEDLNSGPLSKLSLLIRERQQLRKTYSEQWQQLQQELTKTHSQDIEKLKSQYRALARDSAQAKRKYQEASKDKDRDKAKDKYVRSLWKLFAHHNRYVLGVRAAQLHHQHHHQLLLPGLLRSLQDLHEEMACILKEILQEYLEISSLVQDEVVAIHREMAAAAARIQPEAEYQGFLRQYGSAPDVPPCVTFDESLLEEGEPLEPGELQLNELTVESVQHTLTSVTDELAVATEMVFRRQEMVTQLQQELRNEEENTHPRERVQLLGKRQVLQEALQGLQVALCSQAKLQAQQELLQTKLEHLGPGEPPPVLLLQDDRHSTSSSEQEREGGRTPTLEILKSHISGIFRPKFSLPPPLQLIPEVQKPLHEQLWYHGAIPRAEVAELLVHSGDFLVRESQGKQEYVLSVLWDGLPRHFIIQSLDNLYRLEGEGFPSIPLLIDHLLSTQQPLTKKSGVVLHRAVPKDKWVLNHEDLVLGEQIGRGNFGEVFSGRLRADNTLVAVKSCRETLPPDLKAKFLQEARILKQYSHPNIVRLIGVCTQKQPIYIVMELVQGGDFLTFLRTEGARLRVKTLLQMVGDAAAGMEYLESKCCIHRDLAARNCLVTEKNVLKISDFGMSREEADGVYAASGGLRQVPVKWTAPEALNYGRYSSESDVWSFGILLWETFSLGASPYPNLSNQQTREFVEKGGRLPCPELCPDAVFRLMEQCWAYEPGQRPSFSTIYQELQSIRKRHR
Take B1: the Signal to Noise Ratio with BRB1 Peptide (TR-FRET kinase assay; kinase 1 nM) stood at 24.9.

B2: ITK (protein)
chain: NNFILLEEQLIKKSQQKRRTSPSNFKVRFFVLTKASLAYFEDRHGKKRTLKGSIELSRIKCVEIVKSDISIPCHYKYPFQVVHDNYLLYVFAPDRESRQRWVLALKEETRNNNSLVPKYHPNFWMDGKWRCCSQLEKLATGCAQYDPTKNASKKPLPPTPEDNRRPLWEPEETVVIALYDYQTNDPQELALRRNEEYCLLDSSEIHWWRVQDRNGHEGYVPSSYLVEKSPNNLETYEWYNKSISRDKAEKLLLDTGKEGAFMVRDSRTAGTYTVSVFTKAVVSENNPCIKHYHIKETNDNPKRYYVAEKYVFDSIPLLINYHQHNGGGLVTRLRYPVCFGRQKAPVTAGLRYGKWVIDPSELTFVQEIGSGQFGLVHLGYWLNKDKVAIKTIREGAMSEEDFIEEAEVMMKLSHPKLVQLYGVCLEQAPICLVFEFMEHGCLSDYLRTQRGLFAAETLLGMCLDVCEGMAYLEEACVIHRDLAARNCLVGENQVIKVSDFGMTRFVLDDQYTSSTGTKFPVKWASPEVFSFSRYSSKSDVWSFGVLMWEVFSEGKIPYENRSNSEVVEDISTGFRLYKPRLASTHVYQIMNHCWKERPEDRPAFSRLLRQLAEIAESGL
B2: the Signal to Noise ratio with BRB1 Peptide (TR-FRET kinase assay; kinase 0.5 nM) amounted to 8.4.

B3: TEC (protein)
chain: MNFNTILEEILIKRSQQKKKTSPLNYKERLFVLTKSMLTYYEGRAEKKYRKGFIDVSKIKCVEIVKNDDGVIPCQNKYPFQVVHDANTLYIFAPSPQSRDLWVKKLKEEIKNNNNIMIKYHPKFWTDGSYQCCRQTEKLAPGCEKYNLFESSIRKALPPAPETKKRRPPPPIPLEEEDNSEEIVVAMYDFQAAEGHDLRLERGQEYLILEKNDVHWWRARDKYGNEGYIPSNYVTGKKSNNLDQYEWYCRNMNRSKAEQLLRSEDKEGGFMVRDSSQPGLYTVSLYTKFGGEGSSGFRHYHIKETTTSPKKYYLAEKHAFGSIPEIIEYHKHNAAGLVTRLRYPVSVKGKNAPTTAGFSYEKWEINPSELTFMRELGSGLFGVVRLGKWRAQYKVAIKAIREGAMCEEDFIEEAKVMMKLTHPKLVQLYGVCTQQKPIYIVTEFMERGCLLNFLRQRQGHFSRDVLLSMCQDVCEGMEYLERNSFIHRDLAARNCLVSEAGVVKVSDFGMARYVLDDQYTSSSGAKFPVKWCPPEVFNYSRFSSKSDVWSFGVLMWEVFTEGRMPFEKYTNYEVVTMVTRGHRLYQPKLASNYVYEVMLRCWQEKPEGRPSFEDLLRTIDELVECEETFGR
Take B3: the Signal to Noise ratio with BRB1 Peptide (TR-FRET kinase assay; kinase 0.5 nM) was found to be 18.6.

B4: CTK (protein)
chain: MAGRGSLVSWRAFHGCDSAEELPRVSPRFLRAWHPPPVSARMPTRRWAPGTQCITKCEHTRPKPGELAFRKGDVVTILEACENKSWYRVKHHTSGQEGLLAAGALREREALSADPKLSLMPWFHGKISGQEAVQQLQPPEDGLFLVRESARHPGDYVLCVSFGRDVIHYRVLHRDGHLTIDEAVFFCNLMDMVEHYSKDKGAICTKLVRPKRKHGTKSAEEELARAGWLLNLQHLTLGAQIGEGEFGAVLQGEYLGQKVAVKNIKCDVTAQAFLDETAVMTKMQHENLVRLLGVILHQGLYIVMEHVSKGNLVNFLRTRGRALVNTAQLLQFSLHVAEGMEYLESKKLVHRDLAARNILVSEDLVAKVSDFGLAKAERKGLDSSRLPVKWTAPEALKHGKFTSKSDVWSFGVLLWEVFSYGRAPYPKMSLKEVSEAVEKGYRMEPPEGCPGPVHVLMSSCWEAEPARRPPFRKLAEKLARELRSAGAPASVSGQDADGSTSPRSQEP
Turning to B4, the Signal to Noise Ratio with BRB1 Peptide (TR-FRET kinase assay; kinase 20 nM) is 2.5.

B5: JAK3 (protein)
chain: ALAPRDGLWNGAQLYACQDPTIFEERHLKYISQLGKGNFGSVELCRYDPLGDNTGALVAVKQLQHSGPDQQRDFQREIQILKALHSDFIVKYRGVSYGPGRQSLRLVMEYLPSGCLRDFLQRHRARLDASRLLLYSSQICKGMEYLGSRRCVHRDLAARNILVESEAHVKIADFGLAKLLPLDKDYYVVREPGQSPIFWYAPESLSDNIFSRQSDVWSFGVVLYELFTYCDKSCSPSAEFLRMMGCERDVPALCRLLELLEEGQRLPAPPACPAEVHELMKLCWAPSPQDRPSFSALGPQLDMLWSGSRGCETHAFTAHPEGKHHSLSFS
For B5, the Signal to Noise ratio with BRB1 Peptide (TR-FRET kinase assay; kinase 0.5 nM) amounted to 16.1.

B6: LYNb (protein)
chain: MGCIKSKGKDSLSDDGVDLKTQPVPESQLLPGQRFQTKDPEEQGDIVVALYPYDGIHPDDLSFKKGEKMKVLEEHGEWWKAKSLLTKKEGFIPSNYVAKLNTLETEEWFFKDITRKDAERQLLAPGNSAGAFLIRESETLKGSFSLSVRDFDPVHGDVIKHYKIRSLDNGGYYISPRITFPCISDMIKHYQKQADGLCRRLEKACISPKPQKPWDKDAWEIPRESIKLVKRLGAGQFGEVWMGYYNNSTKVAVKTLKPGTMSVQAFLEEANLMKTLQHDKLVRLYAVVTREEPIYIITEYMAKGSLLDFLKSDEGGKVLLPKLIDFSAQIAEGMAYIERKNYIHRDLRAANVLVSESLMCKIADFGLARVIEDNEYTAREGAKFPIKWTAPEAINFGCFTIKSDVWSFGILLYEIVTYGKIPYPGRTNADVMTALSQGYRMPRVENCPDELYDIMKMCWKEKAEERPTFDYLQSVLDDFYTATEGQYQQQP
For the protein B6, the Signal to Noise Ratio with BRB1 Peptide (TR-FRET kinase assay; kinase 1 nM) was 33.1.

B7: FAK (protein)
chain: LANSEKQGMRTHAVSVSETDDYAEIIDEEDTYTMPSTRDYEIQRERIELGRCIGEGQFGDVHQGIYMSPENPALAVAIKTCKNCTSDSVREKFLQEALTMRQFDHPHIVKLIGVITENPVWIIMELCTLGELRSFLQVRKYSLDLASLILYAYQLSTALAYLESKRFVHRDIAARNVLVSSNDCVKLGDFGLSRYMEDSTYYKASKGKLPIKWMAPESINFRRFTSASDVWMFGVCMWEILMHGVKPFQGVKNNDVIGRIENGERLPMPPNCPPTLYSLMTKCWAYDPSRRPRFTELKAQLSTILEEEKAQQEERMRMESRRQATVSWDSGGSDEAPPKPSRPGYPSPRSSEGFYPSPQHMVQTNHYQVSGYPGSHGITAMAGSIYPGQASLLDQTDSWNHRPQEIAMWQPNVEDSTVLDLRGIGQVLPTHLMEERLIRQQQEMEEDQRWLEKEERFLKPDVRLSRGSIDREDGSLQGPIGNQHIYQPVGKPDPAAPPKKPPRPGAPGHLGSLASLSSPADSYNEGVKLQPQEISPPPTANLDRSNDKVYENVTGLVKAVIEMSSKIQPAPPEEYVPMVKEVGLALRTLLATVDETIPLLPASTHREIEMAQKLLNSDLGELINKMKLAQQYVMTSLQQEYKKQMLTAAHALAVDAKNLLDVIDQARLKMLGQTRPH
For B7, the Signal to Noise Ratio with BRB1 Peptide (TR-FRET kinase assay; kinase 3 nM) is 1.7.

B8: JAK2 (protein)
chain: RIGALGFSGAFEDRDPTQFEERHLKFLQQLGKGNFGSVEMCRYDPLQDNTGEVVAVKKLQHSTEEHLRDFEREIEILKSLQHDNIVKYKGVCYSAGRRNLKLIMEYLPYGSLRDYLQKHKERIDHIKLLQYTSQICKGMEYLGTKRYIHRDLATRNILVENENRVKIGDFGLTKVLPQDKEYYKVKEPGESPIFWYAPESLTESKFSVASDVWSFGVVLYELFTYIEKSKSPPAEFMRMIGNDKQGQMIVFHLIELLKNNGRLPRPDGCPDEIYMIMTECWNNNVNQRPSFRDLALRVDQIRDNMAG
Consider B8, for which the Signal to Noise Ratio with BRB1 Peptide (TR-FRET kinase assay; kinase 1 nM) stood at 35.5.

B9: FER (protein)
chain: KSGVVLLNPIPKDKKWILSHEDVILGELLGKGNFGEVYKGTLKDKTSVAVKTCKEDLPQELKIKFLQEAKILKQYDHPNIVKLIGVCTQRQPVYIIMELVSGGDFLTFLRRKKDELKLKQLVKFSLDAAAGMLYLESKNCIHRDLAARNCLVGENNVLKISDFGMSRQEDGGVYSSSGLKQIPIKWTAPEALNYGRYSSESDVWSFGILLWETFSLGVCPYPGMTNQQAREQVERGYRMSAPQHCPEDISKIMMKCWDYKPENRPKFSELQKELTIIKRKLT
Consider B9, for which the Signal to Noise ratio with BRB1 Peptide (TR-FRET kinase assay; kinase 0.25 nM) was 31.

B10: SRM (protein)
chain: MEPFLRRRLAFLSFFWDKIWPAGGEPDHGTPGSLDPNTDPVPTLPAEPCSPFPQLFLALYDFTARCGGELSVRRGDRLCALEEGGGYIFARRLSGQPSAGLVPITHVAKASPETLSDQPWYFSGVSRTQAQQLLLSPPNEPGAFLIRPSESSLGGYSLSVRAQAKVCHYRVSMAADGSLYLQKGRLFPGLEELLTYYKANWKLIQNPLLQPCMPQKAPRQDVWERPHSEFALGRKLGEGYFGEVWEGLWLGSLPVAIKVIKSANMKLTDLAKEIQTLKGLRHERLIRLHAVCSGGEPVYIVTELMRKGNLQAFLGTPEGRALRLPPLLGFACQVAEGMSYLEEQRVVHRDLAARNVLVDDGLACKVADFGLARLLKDDIYSPSSSSKIPVKWTAPEAANYRVFSQKSDVWSFGVLLHEVFTYGQCPYEGMTNHETLQQIMRGYRLPRPAACPAEVYVLMLECWRSSPEERPSFATLREKLHAIHRCHP
In the case of B10, the Signal to Noise ratio with BRB1 Peptide (TR-FRET kinase assay; kinase 0.5 nM) amounted to 32.5.

B11: FRK (protein)
chain: MSNICQRLWEYLEPYLPCLSTEADKSTVIENPGALCSPQSQRHGHYFVALFDYQARTAEDLSFRAGDKLQVLDTLHEGWWFARHLEKRRDGSSQQLQGYIPSNYVAEDRSLQAEPWFFGAIGRSDAEKQLLYSENKTGSFLIRESESQKGEFSLSVLDGAVVKHYRIKRLDEGGFFLTRRRIFSTLNEFVSHYTKTSDGLCVKLGKPCLKIQVPAPFDLSYKTVDQWEIDRNSIQLLKRLGSGQFGEVWEGLWNNTTPVAVKTLKPGSMDPNDFLREAQIMKNLRHPKLIQLYAVCTLEDPIYIITELMRHGSLQEYLQNDTGSKIHLTQQVDMAAQVASGMAYLESRNYIHRDLAARNVLVGEHNIYKVADFGLARVFKVDNEDIYESRHEIKLPVKWTAPEAIRSNKFSIKSDVWSFGILLYEIITYGKMPYSGMTGAQVIQMLAQNYRLPQPSNCPQQFYNIMLECWNAEPKERPTFETLRWKLEDYFETDSSYSDANNFIR
As to B11, the Signal to Noise ratio with BRB1 Peptide (TR-FRET kinase assay; kinase 0.5 nM) was 9.7.

The values above are taken from US20100015650.
